Patent US20230374150A1 (Memorial Sloan Kettering, published 2023)
Where “and” joins values, the source holds several entries; their conditions need not be identical. Equal values may be shown once. One block for each binder: values may come before it.

What was measured:
Human PSMA antigen [1] = biological target: T1, Human PSMA antigen (human, UniProt Q04609 44-750, limits assumed); test: SPR (Biacore), 37 C, antibody over immobilized PSMA
T1 construct: This is the antigen immobilised on the Biacore chip; also called FOLH1_HUMAN
T1 sequence (Q04609 44-750 limits assumed): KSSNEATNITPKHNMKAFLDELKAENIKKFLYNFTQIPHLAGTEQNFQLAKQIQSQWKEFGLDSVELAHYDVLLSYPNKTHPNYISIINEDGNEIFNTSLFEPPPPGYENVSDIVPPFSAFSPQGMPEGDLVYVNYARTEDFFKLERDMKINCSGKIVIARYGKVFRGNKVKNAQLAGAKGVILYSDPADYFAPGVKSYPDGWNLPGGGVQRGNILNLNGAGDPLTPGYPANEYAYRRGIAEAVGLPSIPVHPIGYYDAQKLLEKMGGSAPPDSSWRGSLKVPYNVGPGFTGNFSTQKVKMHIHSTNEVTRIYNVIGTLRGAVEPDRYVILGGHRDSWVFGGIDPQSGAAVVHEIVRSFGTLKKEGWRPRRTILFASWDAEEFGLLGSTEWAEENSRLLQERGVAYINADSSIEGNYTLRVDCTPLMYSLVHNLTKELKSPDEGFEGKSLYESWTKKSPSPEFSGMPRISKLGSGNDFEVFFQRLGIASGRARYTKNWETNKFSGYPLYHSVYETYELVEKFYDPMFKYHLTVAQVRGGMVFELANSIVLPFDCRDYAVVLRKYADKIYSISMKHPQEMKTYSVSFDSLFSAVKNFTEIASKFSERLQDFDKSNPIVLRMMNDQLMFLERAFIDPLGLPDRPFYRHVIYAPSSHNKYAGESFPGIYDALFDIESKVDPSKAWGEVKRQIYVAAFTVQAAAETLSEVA
Description: The calculated kinetic parameters derived from SPR are shown in FIG. 4C, showing distinct differences in affinities when compared to the chimeric and the original mouse antibody J591. Increased affinity of anti-PSMA antibodies should translate into higher potency, while lower affinity anti-PSMA antibodies into lower toxicity. This affinity modulation is achieved without altering the CDR sequences. Based on the binding kinetics, the clone having combination of J591_VL-1 and J591_VH-3, which has near identical binding kinetics to those of J591 chimeric antibody, was chosen to build the PSMA-BsAb (BC244) of the present technology. The amino acid sequences of the light chain (SEQ ID NO: 11) and the heavy chain (SEQ ID NO: 12) of the select clone are shown in FIG. 12. Mutation N297A was used to remove glycosylation, and K322A to minimize complement activation.

Human PSMA antigen [2] = biological target: T1, Human PSMA antigen; test: SPR Biacore, immobilised human PSMA, 37 C, 1:1 fit
Experimental: (§1) PSMA-BsAb Biacore Settings. Human PSMA antigen was immobilized directly on Fc2 at 3000 RU, and cynomolgus PSMA (ACRO) on Fc4 at 3000 RU (Blank on Fc1 and Fc3 as controls). Abs were run through the system at 37° C., at concentrations of 250 and 500 nM, with association time 1 min, dissociation time 15 min. Regeneration was performed at 30 mM NaOH. All data were fitted with 1:1 model.

cynomolgus PSMA (ACRO) = biological target: T2, cynomolgus PSMA (ACRO) (cynomolgus, UniProt A0A2K5VNZ0 44-750); test: SPR Biacore, immobilised cynomolgus PSMA, 37 C, 1:1 fit
T2 construct: Immobilised on the Biacore chip
Experimental: as §1

[3] = biological target: PSMA on PSMA(+) human prostate cancer cell lines (LNCaP-AR, PC3-PIP, CWR22, VCaP) (human, UniProt Q04609 1-750); test: cell-based or functional assay
Chain of PSMA on PSMA(+) human prostate cancer cell lines (LNCaP-AR, PC3-PIP, CWR22, VCaP) (Q04609 whole entry): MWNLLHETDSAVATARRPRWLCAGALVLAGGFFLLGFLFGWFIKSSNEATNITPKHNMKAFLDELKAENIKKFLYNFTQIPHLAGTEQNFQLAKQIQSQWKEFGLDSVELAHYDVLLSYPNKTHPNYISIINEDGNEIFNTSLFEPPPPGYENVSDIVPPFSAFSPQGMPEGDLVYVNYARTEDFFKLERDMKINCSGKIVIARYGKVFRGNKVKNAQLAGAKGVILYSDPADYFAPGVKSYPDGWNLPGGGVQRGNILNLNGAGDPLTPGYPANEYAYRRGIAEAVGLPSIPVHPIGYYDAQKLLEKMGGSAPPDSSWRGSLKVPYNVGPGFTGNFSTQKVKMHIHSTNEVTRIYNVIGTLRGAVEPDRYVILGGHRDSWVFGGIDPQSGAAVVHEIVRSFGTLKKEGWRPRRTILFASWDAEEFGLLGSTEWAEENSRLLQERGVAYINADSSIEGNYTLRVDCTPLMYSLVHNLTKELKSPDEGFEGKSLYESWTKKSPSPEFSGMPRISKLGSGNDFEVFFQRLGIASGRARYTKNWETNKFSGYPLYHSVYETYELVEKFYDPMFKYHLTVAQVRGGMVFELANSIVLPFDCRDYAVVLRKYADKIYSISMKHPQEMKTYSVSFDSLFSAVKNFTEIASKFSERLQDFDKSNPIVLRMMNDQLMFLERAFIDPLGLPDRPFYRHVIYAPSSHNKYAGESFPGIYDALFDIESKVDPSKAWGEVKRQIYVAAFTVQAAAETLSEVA

[4] = biological target: PSMA on PSMA(+) canine osteosarcoma cell lines (D-17, DSN, DAN, DSDh) (canine, UniProt I4IY07 29-779); test: cell-based or functional assay
Chain of PSMA on PSMA(+) canine osteosarcoma cell lines (D-17, DSN, DAN, DSDh) (I4IY07 entry or part of it limits assumed): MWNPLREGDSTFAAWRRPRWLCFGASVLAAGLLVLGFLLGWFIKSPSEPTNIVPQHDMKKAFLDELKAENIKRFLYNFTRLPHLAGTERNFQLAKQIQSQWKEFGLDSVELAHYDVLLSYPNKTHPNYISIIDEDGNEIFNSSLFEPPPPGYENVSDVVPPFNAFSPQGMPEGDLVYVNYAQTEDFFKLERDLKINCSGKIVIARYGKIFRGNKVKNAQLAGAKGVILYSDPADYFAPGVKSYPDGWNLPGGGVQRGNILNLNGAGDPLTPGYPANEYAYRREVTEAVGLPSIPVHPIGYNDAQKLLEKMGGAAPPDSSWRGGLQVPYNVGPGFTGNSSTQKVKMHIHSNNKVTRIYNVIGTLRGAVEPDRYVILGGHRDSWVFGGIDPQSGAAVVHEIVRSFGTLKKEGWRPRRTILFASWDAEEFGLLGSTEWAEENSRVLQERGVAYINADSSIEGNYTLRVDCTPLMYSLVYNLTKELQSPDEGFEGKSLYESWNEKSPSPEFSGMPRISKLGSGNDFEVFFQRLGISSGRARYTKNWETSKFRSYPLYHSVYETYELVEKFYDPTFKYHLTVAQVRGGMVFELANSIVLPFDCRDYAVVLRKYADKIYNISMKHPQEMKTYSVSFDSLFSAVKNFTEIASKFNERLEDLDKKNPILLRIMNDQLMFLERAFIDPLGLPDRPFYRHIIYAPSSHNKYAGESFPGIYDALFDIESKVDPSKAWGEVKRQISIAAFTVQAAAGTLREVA

Kd (Human PSMA antigen [1]): 0.206 nM
koff (Human PSMA antigen [1]): 1.21e-05 s⁻¹
kon (Human PSMA antigen [1]): 58500 M⁻¹ s⁻¹
Kd (Human PSMA antigen [2]): 1.55 nM
koff (Human PSMA antigen [2]): 0.000196 s⁻¹
kon (Human PSMA antigen [2]): 127000 M⁻¹ s⁻¹
t ½ (Human PSMA antigen [2]): 58.8 min
Kd (cynomolgus PSMA (ACRO)): 3.71 nM
koff (cynomolgus PSMA (ACRO)): 0.000716 s⁻¹
kon (cynomolgus PSMA (ACRO)): 193000 M⁻¹ s⁻¹
t ½ (cynomolgus PSMA (ACRO)): 16.1 min
B1: 10J5-chimeric J591 (antibody, V domains shown)
VH: EVQLQQSGPELVKPGTSVRISCKTSGYTFTEYTIHWVKQSHGKSLEWIGNINPNNGGTTYNQKFEDKATLTVDKSSSTAYMELRSLTSEDSAVYYCAAGWNFDYWGQGTTLTVSS
VL: DIVMTQSHKFMSTSVGDRVSIICKASQDVGTAVDWYQQKPGQSPKLLIYWASTRHTGVPDRFTGSGSGTDFTLTITNVQSEDLADYFCQQYNSYPLTFGAGTMLDLKR
notes: also called J591 chimeric antibody

Kd (Human PSMA antigen [2]): 1.18 nM
koff (Human PSMA antigen [2]): 0.000162 s⁻¹
kon (Human PSMA antigen [2]): 138000 M⁻¹ s⁻¹
t ½ (Human PSMA antigen [2]): 71.2 min
EC50, ADTC (4-hour 51Cr release), LNCaP-AR cells [3]: 0.000761 µg/mL and 3.81 pM
EC50, ADTC (4-hour 51Cr release), PC3-PIP cells [3]: 2.1e-05 µg/mL and 107 fM
EC50, ADTC (4-hour 51Cr release), VCaP cells [3]: 0.0163 µg/mL and 81.7 pM
EC50, ADTC (4-hour 51Cr release), D-17 cells [4]: 0.106 nM
EC50, ADTC (4-hour 51Cr release), DAN cells [4]: 0.102 nM
EC50, ADTC (4-hour 51Cr release), DSDh cells [4]: 0.152 nM
EC50, ADTC (4-hour 51Cr release), DSN cells [4]: 0.0703 nM
Kd (cynomolgus PSMA (ACRO)): 2.79 nM
koff (cynomolgus PSMA (ACRO)): 0.000329 s⁻¹
kon (cynomolgus PSMA (ACRO)): 118000 M⁻¹ s⁻¹
t ½ (cynomolgus PSMA (ACRO)): 35.1 min
B2: humanized anti-PSMAxCD3 BsAb BC244 (H3L1) (bispecific antibody, human IgG1, kappa, N297A)
light: DIQLTQSPSFLSASVGDRVTITCRASQDVGTALDWYQQKPGKAPKLLIYWASTLHSGVPSRFSGSGSGTEFTLTISSLQPEDFATYYCQQYNSYPLTFGQGTKLEIKRTVAAPSVFIFPPSDEQLKSGTASVVCLLNNFYPREAKVQWKVDNALQSGNSQESVTEQDSKDSTYSLSSTLTLSKADYEKHKVYACEVTHQGLSSPVTKSFNRGECTSGGGGSGGGGSGGGGSQVQLVQSGGGVVQPGRSLRLSCKASGYTFTRYTMHWVRQAPGKCLEWIGYINPSRGYTNYNQKFKDRFTISRDNSKNTAFLQMDSLRPEDTGVYFCARYYDDHYSLDYWGQGTPVTVSSGGGGSGGGGSGGGGSGGGGSGGGGSGGGGSDIQMTQSPSSLSASVGDRVTITCSASSSVSYMNWYQQTPGKAPKRWIYDTSKLASGVPSRFSGSGSGTDYTFTISSLQPEDIATYYCQQWSSNPFTFGCGTKLQITR
heavy: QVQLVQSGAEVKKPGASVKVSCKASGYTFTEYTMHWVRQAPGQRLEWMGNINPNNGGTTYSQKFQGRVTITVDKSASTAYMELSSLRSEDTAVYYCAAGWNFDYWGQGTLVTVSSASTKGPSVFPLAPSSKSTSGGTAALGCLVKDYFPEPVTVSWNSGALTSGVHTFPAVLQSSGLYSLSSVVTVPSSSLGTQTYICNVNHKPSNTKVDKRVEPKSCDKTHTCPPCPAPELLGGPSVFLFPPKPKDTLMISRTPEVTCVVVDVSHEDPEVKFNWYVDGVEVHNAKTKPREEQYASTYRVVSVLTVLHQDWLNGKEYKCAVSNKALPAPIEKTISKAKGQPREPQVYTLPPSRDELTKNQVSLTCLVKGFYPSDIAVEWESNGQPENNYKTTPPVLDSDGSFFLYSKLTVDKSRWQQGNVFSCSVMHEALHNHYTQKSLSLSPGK
notes: IgG(L)-scFv format, J591_VL-1 + J591_VH-3; also called PSMA-BsAb

Kd (Human PSMA antigen [2]): 2.9 nM
koff (Human PSMA antigen [2]): 0.000279 s⁻¹
kon (Human PSMA antigen [2]): 96200 M⁻¹ s⁻¹
t ½ (Human PSMA antigen [2]): 41.3 min
Kd (cynomolgus PSMA (ACRO)): 8.75 nM
koff (cynomolgus PSMA (ACRO)): 0.000459 s⁻¹
kon (cynomolgus PSMA (ACRO)): 52500 M⁻¹ s⁻¹
t ½ (cynomolgus PSMA (ACRO)): 25.2 min
B3: anti-PSMAxhuC825 clone BC192 (PSMA LALA) (bispecific antibody, human IgG1, kappa, L234A L235A)
light: DIQLTQSPSFLSASVGDRVTITCRASQDVGTALDWYQQKPGKAPKLLIYWASTLHSGVPSRFSGSGSGTEFTLTISSLQPEDFATYYCQQYNSYPLTFGQGTKLEIKRTVAAPSVFIFPPSDEQLKSGTASVVCLLNNFYPREAKVQWKVDNALQSGNSQESVTEQDSKDSTYSLSSTLTLSKADYEKHKVYACEVTHQGLSSPVTKSFNRGECTSGGGGSGGGGSGGGGSHVQLVESGGGLVQPGGSLRLSCAASGFSLTDYGVHWVRQAPGKGLEWLGVIWSGGGTAYNTALISRFTISRDNSKNTLYLQMNSLRAEDTAVYYCARRGSYPYNYFDAWGCGTLVTVSSGGGGSGGGGSGGGGSGGGGSGGGGSGGGGSQAVVTQEPSLTVSPGGTVTLTCGSSTGAVTASNYANWVQQKPGQCPRGLIGGHNNRPPGVPARFSGSLLGGKAALTLLGAQPEDEAEYYCALWYSDHWVIGGGTKLTVLG
heavy: not shown

Kd (Human PSMA antigen [2]): 2.15 nM
koff (Human PSMA antigen [2]): 0.00021 s⁻¹
kon (Human PSMA antigen [2]): 97500 M⁻¹ s⁻¹
t ½ (Human PSMA antigen [2]): 55 min
Kd (cynomolgus PSMA (ACRO)): 4.88 nM
koff (cynomolgus PSMA (ACRO)): 0.000209 s⁻¹
kon (cynomolgus PSMA (ACRO)): 42900 M⁻¹ s⁻¹
t ½ (cynomolgus PSMA (ACRO)): 55.2 min
B4: anti-PSMAxhuC825 clone BC193 (PSMA K322) (bispecific antibody)
light: B3 light
heavy: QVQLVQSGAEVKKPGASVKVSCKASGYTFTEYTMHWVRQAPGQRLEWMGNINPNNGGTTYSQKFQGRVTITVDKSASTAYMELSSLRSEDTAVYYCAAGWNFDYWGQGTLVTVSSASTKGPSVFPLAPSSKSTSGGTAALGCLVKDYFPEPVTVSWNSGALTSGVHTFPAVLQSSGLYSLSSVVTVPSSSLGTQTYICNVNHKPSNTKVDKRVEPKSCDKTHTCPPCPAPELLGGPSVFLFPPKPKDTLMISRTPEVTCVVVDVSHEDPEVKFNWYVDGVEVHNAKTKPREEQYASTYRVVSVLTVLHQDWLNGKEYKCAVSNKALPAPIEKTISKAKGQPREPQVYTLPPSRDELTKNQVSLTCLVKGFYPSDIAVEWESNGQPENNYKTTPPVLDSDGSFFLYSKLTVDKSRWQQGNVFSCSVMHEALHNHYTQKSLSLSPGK
